The labels stand for the following.
T1: CD55 (UniProt P08174 35-353, limits assumed)
T1 construct: whole, on cells; also called CD55 on Rituximab resistant Raji cells (RRCL)
T1 sequence (looked up): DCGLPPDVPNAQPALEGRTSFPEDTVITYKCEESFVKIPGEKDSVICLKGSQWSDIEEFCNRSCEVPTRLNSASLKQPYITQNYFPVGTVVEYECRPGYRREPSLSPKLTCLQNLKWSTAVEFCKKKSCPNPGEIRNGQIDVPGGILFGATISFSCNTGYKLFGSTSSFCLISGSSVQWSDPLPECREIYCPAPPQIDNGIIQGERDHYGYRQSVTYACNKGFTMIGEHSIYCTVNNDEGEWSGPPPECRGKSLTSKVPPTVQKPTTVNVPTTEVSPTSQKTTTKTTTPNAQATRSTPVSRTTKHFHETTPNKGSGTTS

B1: anti-CD55 antibody with CD55VH (SEQ ID NO: 14) N52S and VL (SEQ ID NO: 15) (antibody, V domains shown)
VH: QVKLQESGGGLVQPGGSLKLSCAASGFTFSGYGMSWIRQTPDKRLEWVATISSGGSYTYYSDSVKGRFTISRDNVKNTLYLQMSSLKSEDTAMYYCARRNGTLYYYLMDYWGRGTLVTVSS
VL: QSVLTQPPSASGSPGQSVTISCTGTSSDVGGYNYVSWYQQHPGKAPKFMIYDVSKRPSGVSNRFSGSKSGNTASLTISGVQAEDEADYYCSSYTSASTVIFGGGTKLTVL
notes: also called Test 2
B2: anti-CD55 antibody with CD55VH (SEQ ID NO: 14) N100F and VL (SEQ ID NO: 15) (antibody, V domains shown)
VH: QVKLQESGGGLVQPGGSLKLSCAASGFTFSGYGMSWIRQTPDKRLEWVATINSGGSYTYYSDSVKGRFTISRDNVKNTLYLQMSSLKSEDTAMYYCARRFGTLYYYLMDYWGRGTLVTVSS
VL: QSVLTQPPSASGSPGQSVTISCTGTSSDVGGYNYVSWYQQHPGKAPKFMIYDVSKRPSGVSNRFSGSKSGNTASLTISGVQAEDEADYYCSSYTSASTVIFGGGTKLTVL
notes: also called Test 18
B3: anti-CD55 antibody with CD55VH (SEQ ID NO: 14) N100Q (printed "N1000") and VL (SEQ ID NO: 15) (antibody, V domains shown)
VH: QVKLQESGGGLVQPGGSLKLSCAASGFTFSGYGMSWIRQTPDKRLEWVATINSGGSYTYYSDSVKGRFTISRDNVKNTLYLQMSSLKSEDTAMYYCARRQGTLYYYLMDYWGRGTLVTVSS
VL: QSVLTQPPSASGSPGQSVTISCTGTSSDVGGYNYVSWYQQHPGKAPKFMIYDVSKRPSGVSNRFSGSKSGNTASLTISGVQAEDEADYYCSSYTSASTVIFGGGTKLTVL
notes: The cell prints "N1000"; also called Test 22
B4: anti-CD55 antibody with CD55VH (SEQ ID NO: 14) N100K and VL (SEQ ID NO: 15) (antibody, V domains shown)
VH: QVKLQESGGGLVQPGGSLKLSCAASGFTFSGYGMSWIRQTPDKRLEWVATINSGGSYTYYSDSVKGRFTISRDNVKNTLYLQMSSLKSEDTAMYYCARRKGTLYYYLMDYWGRGTLVTVSS
VL: QSVLTQPPSASGSPGQSVTISCTGTSSDVGGYNYVSWYQQHPGKAPKFMIYDVSKRPSGVSNRFSGSKSGNTASLTISGVQAEDEADYYCSSYTSASTVIFGGGTKLTVL
notes: also called Test 13
B5: anti-CD55 antibody with CD55VH (SEQ ID NO: 14) T102G and VL (SEQ ID NO: 15) (antibody, V domains shown)
VH: QVKLQESGGGLVQPGGSLKLSCAASGFTFSGYGMSWIRQTPDKRLEWVATINSGGSYTYYSDSVKGRFTISRDNVKNTLYLQMSSLKSEDTAMYYCARRNGGLYYYLMDYWGRGTLVTVSS
VL: QSVLTQPPSASGSPGQSVTISCTGTSSDVGGYNYVSWYQQHPGKAPKFMIYDVSKRPSGVSNRFSGSKSGNTASLTISGVQAEDEADYYCSSYTSASTVIFGGGTKLTVL
notes: also called Test 27
B6: anti-CD55 antibody with CD55VH (SEQ ID NO: 14) N100M and VL (SEQ ID NO: 15) (antibody, V domains shown)
VH: QVKLQESGGGLVQPGGSLKLSCAASGFTFSGYGMSWIRQTPDKRLEWVATINSGGSYTYYSDSVKGRFTISRDNVKNTLYLQMSSLKSEDTAMYYCARRMGTLYYYLMDYWGRGTLVTVSS
VL: QSVLTQPPSASGSPGQSVTISCTGTSSDVGGYNYVSWYQQHPGKAPKFMIYDVSKRPSGVSNRFSGSKSGNTASLTISGVQAEDEADYYCSSYTSASTVIFGGGTKLTVL
notes: also called Test 19
B7: anti-CD55 antibody with CD55VH (SEQ ID NO: 14) N100E and VL (SEQ ID NO: 15) (antibody, V domains shown)
VH: QVKLQESGGGLVQPGGSLKLSCAASGFTFSGYGMSWIRQTPDKRLEWVATINSGGSYTYYSDSVKGRFTISRDNVKNTLYLQMSSLKSEDTAMYYCARREGTLYYYLMDYWGRGTLVTVSS
VL: QSVLTQPPSASGSPGQSVTISCTGTSSDVGGYNYVSWYQQHPGKAPKFMIYDVSKRPSGVSNRFSGSKSGNTASLTISGVQAEDEADYYCSSYTSASTVIFGGGTKLTVL
notes: also called Test 24
B8: anti-CD55 antibody with CD55VH (SEQ ID NO: 14) N100L and VL (SEQ ID NO: 15) (antibody, V domains shown)
VH: QVKLQESGGGLVQPGGSLKLSCAASGFTFSGYGMSWIRQTPDKRLEWVATINSGGSYTYYSDSVKGRFTISRDNVKNTLYLQMSSLKSEDTAMYYCARRLGTLYYYLMDYWGRGTLVTVSS
VL: QSVLTQPPSASGSPGQSVTISCTGTSSDVGGYNYVSWYQQHPGKAPKFMIYDVSKRPSGVSNRFSGSKSGNTASLTISGVQAEDEADYYCSSYTSASTVIFGGGTKLTVL
notes: also called Test 17
B9: anti-CD55 antibody with CD55VH (SEQ ID NO: 14) N100Y and VL (SEQ ID NO: 15) (antibody, V domains shown)
VH: QVKLQESGGGLVQPGGSLKLSCAASGFTFSGYGMSWIRQTPDKRLEWVATINSGGSYTYYSDSVKGRFTISRDNVKNTLYLQMSSLKSEDTAMYYCARRYGTLYYYLMDYWGRGTLVTVSS
VL: QSVLTQPPSASGSPGQSVTISCTGTSSDVGGYNYVSWYQQHPGKAPKFMIYDVSKRPSGVSNRFSGSKSGNTASLTISGVQAEDEADYYCSSYTSASTVIFGGGTKLTVL
notes: also called Test 16
B10: anti-CD55 antibody with CD55VH (SEQ ID NO: 14) N100V and VL (SEQ ID NO: 15) (antibody, V domains shown)
VH: QVKLQESGGGLVQPGGSLKLSCAASGFTFSGYGMSWIRQTPDKRLEWVATINSGGSYTYYSDSVKGRFTISRDNVKNTLYLQMSSLKSEDTAMYYCARRVGTLYYYLMDYWGRGTLVTVSS
VL: QSVLTQPPSASGSPGQSVTISCTGTSSDVGGYNYVSWYQQHPGKAPKFMIYDVSKRPSGVSNRFSGSKSGNTASLTISGVQAEDEADYYCSSYTSASTVIFGGGTKLTVL
notes: also called Test 15
B11: anti-CD55 antibody with CD55VH (SEQ ID NO: 14) N52W and VL (SEQ ID NO: 15) (antibody, V domains shown)
VH: QVKLQESGGGLVQPGGSLKLSCAASGFTFSGYGMSWIRQTPDKRLEWVATIWSGGSYTYYSDSVKGRFTISRDNVKNTLYLQMSSLKSEDTAMYYCARRNGTLYYYLMDYWGRGTLVTVSS
VL: QSVLTQPPSASGSPGQSVTISCTGTSSDVGGYNYVSWYQQHPGKAPKFMIYDVSKRPSGVSNRFSGSKSGNTASLTISGVQAEDEADYYCSSYTSASTVIFGGGTKLTVL
notes: also called Test 7
B12: anti-CD55 antibody with CD55VH (SEQ ID NO: 14) T102M and VL (SEQ ID NO: 15) (antibody, V domains shown)
VH: QVKLQESGGGLVQPGGSLKLSCAASGFTFSGYGMSWIRQTPDKRLEWVATINSGGSYTYYSDSVKGRFTISRDNVKNTLYLQMSSLKSEDTAMYYCARRNGMLYYYLMDYWGRGTLVTVSS
VL: QSVLTQPPSASGSPGQSVTISCTGTSSDVGGYNYVSWYQQHPGKAPKFMIYDVSKRPSGVSNRFSGSKSGNTASLTISGVQAEDEADYYCSSYTSASTVIFGGGTKLTVL
notes: also called Test 26
B13: anti-CD55 antibody with CD55VH (SEQ ID NO: 14) N100A and VL (SEQ ID NO: 15) (antibody, V domains shown)
VH: QVKLQESGGGLVQPGGSLKLSCAASGFTFSGYGMSWIRQTPDKRLEWVATINSGGSYTYYSDSVKGRFTISRDNVKNTLYLQMSSLKSEDTAMYYCARRAGTLYYYLMDYWGRGTLVTVSS
VL: QSVLTQPPSASGSPGQSVTISCTGTSSDVGGYNYVSWYQQHPGKAPKFMIYDVSKRPSGVSNRFSGSKSGNTASLTISGVQAEDEADYYCSSYTSASTVIFGGGTKLTVL
notes: also called Test 20
B14: anti-CD55 antibody with CD55VH (SEQ ID NO: 14) N52V and VL (SEQ ID NO: 15) (antibody, V domains shown)
VH: QVKLQESGGGLVQPGGSLKLSCAASGFTFSGYGMSWIRQTPDKRLEWVATIVSGGSYTYYSDSVKGRFTISRDNVKNTLYLQMSSLKSEDTAMYYCARRNGTLYYYLMDYWGRGTLVTVSS
VL: QSVLTQPPSASGSPGQSVTISCTGTSSDVGGYNYVSWYQQHPGKAPKFMIYDVSKRPSGVSNRFSGSKSGNTASLTISGVQAEDEADYYCSSYTSASTVIFGGGTKLTVL
notes: also called Test 5
B15: anti-CD55 antibody with CD55VH (SEQ ID NO: 14) N100H and VL (SEQ ID NO: 15) (antibody, V domains shown)
VH: QVKLQESGGGLVQPGGSLKLSCAASGFTFSGYGMSWIRQTPDKRLEWVATINSGGSYTYYSDSVKGRFTISRDNVKNTLYLQMSSLKSEDTAMYYCARRHGTLYYYLMDYWGRGTLVTVSS
VL: QSVLTQPPSASGSPGQSVTISCTGTSSDVGGYNYVSWYQQHPGKAPKFMIYDVSKRPSGVSNRFSGSKSGNTASLTISGVQAEDEADYYCSSYTSASTVIFGGGTKLTVL
notes: also called Test 21
B16: anti-CD55 antibody with CD55VH (SEQ ID NO: 14) N52Y and VL (SEQ ID NO: 15) (antibody, V domains shown)
VH: QVKLQESGGGLVQPGGSLKLSCAASGFTFSGYGMSWIRQTPDKRLEWVATIYSGGSYTYYSDSVKGRFTISRDNVKNTLYLQMSSLKSEDTAMYYCARRNGTLYYYLMDYWGRGTLVTVSS
VL: QSVLTQPPSASGSPGQSVTISCTGTSSDVGGYNYVSWYQQHPGKAPKFMIYDVSKRPSGVSNRFSGSKSGNTASLTISGVQAEDEADYYCSSYTSASTVIFGGGTKLTVL
notes: also called Test 9
B17: anti-CD55 antibody with CD55VH (SEQ ID NO: 14) N100T and VL (SEQ ID NO: 15) (antibody, V domains shown)
VH: QVKLQESGGGLVQPGGSLKLSCAASGFTFSGYGMSWIRQTPDKRLEWVATINSGGSYTYYSDSVKGRFTISRDNVKNTLYLQMSSLKSEDTAMYYCARRTGTLYYYLMDYWGRGTLVTVSS
VL: QSVLTQPPSASGSPGQSVTISCTGTSSDVGGYNYVSWYQQHPGKAPKFMIYDVSKRPSGVSNRFSGSKSGNTASLTISGVQAEDEADYYCSSYTSASTVIFGGGTKLTVL
notes: also called Test 14
B18: anti-CD55 antibody with CD55VH (SEQ ID NO: 14) N100I and VL (SEQ ID NO: 15) (antibody, V domains shown)
VH: QVKLQESGGGLVQPGGSLKLSCAASGFTFSGYGMSWIRQTPDKRLEWVATINSGGSYTYYSDSVKGRFTISRDNVKNTLYLQMSSLKSEDTAMYYCARRIGTLYYYLMDYWGRGTLVTVSS
VL: QSVLTQPPSASGSPGQSVTISCTGTSSDVGGYNYVSWYQQHPGKAPKFMIYDVSKRPSGVSNRFSGSKSGNTASLTISGVQAEDEADYYCSSYTSASTVIFGGGTKLTVL
notes: also called Test 23

The values that follow come from patent US20220169728A1 (AB THERAPEUTICS, published 2022).

The target in this assay is T1, CD55. Put plainly: binding at 5 µg/ml against the unmutated antibody (SEQ ID NO: 14 + 15); format not stated.
Consider B1, for which the “Function remaining percentage (5 µg/ml)” value is 95%.

For B2, the “Function remaining percentage (5 µg/ml)” value was determined as 86%.

In the case of B3, the “Function remaining percentage (5 µg/ml)” value was found to be 62%.

As for B4, the “Function remaining percentage (5 µg/ml)” value is 106%.

As to B5, the “Function remaining percentage (5 µg/ml)” value is 17%.

In the case of B6, the “Function remaining percentage (5 µg/ml)” value is 86%.

For the molecule B7, the “Function remaining percentage (5 µg/ml)” value is 17%.

Take B8: the “Function remaining percentage (5 µg/ml)” value worked out at 92%.

With B9, the “Function remaining percentage (5 µg/ml)” value is 95%.

Regarding B10, the “Function remaining percentage (5 µg/ml)” value came out at 94%.

In the case of B11, the “Function remaining percentage (5 µg/ml)” value is 17%.

B12: the “Function remaining percentage (5 µg/ml)” value was determined as 98%.

B13: the “Function remaining percentage (5 µg/ml)” value amounted to 83%.

As to B14, the “Function remaining percentage (5 µg/ml)” value is 21%.

For B15, the “Function remaining percentage (5 µg/ml)” value is 72%.

Consider B16, for which the “Function remaining percentage (5 µg/ml)” value amounted to 17%.

Consider B17, for which the “Function remaining percentage (5 µg/ml)” value is 96%.

In the case of B18, the “Function remaining percentage (5 µg/ml)” value amounted to 62%.
